Values of other authors as cited in article PMC7671103.
Values joined by “and” are separate entries in the source; they are usually repeats but may differ in a detail not shown here. Equal values may be shown once.

Target: CoV main protease (Mpro) (SARS-CoV) (UniProt P0C6X7)

CoV main protease (Mpro) (from UniProt P0C6X7)
Kd: 0.8 µM and 2 µM
